Assay results published in patent publication US20210269545A1.

How the values were obtained:
[1] = target: CD38 on cells (human) (UniProt P28907); test: flow cytometry, Raji cells expressing CD19 and CD38
[2] = target: CD38 on cells (human) (UniProt P28907); test: flow cytometry, Raji cells; adjusted fit with the top asymptote fixed at about the maximum response of Darzalex
[3] = target: CD38 on cells (human) (UniProt P28907); test: flow cytometry, Raji cells expressing CD19 and CD38; remark: listed apart in the source
[4] = target: CD38 on cells (human) (UniProt P28907); test: flow cytometry, Raji cells expressing CD19 and CD38 (negative control)
[5] = target: CD19 on cells (human) (UniProt P15391); test: as above
Chain of CD19 on cells (human) (P15391 20-556): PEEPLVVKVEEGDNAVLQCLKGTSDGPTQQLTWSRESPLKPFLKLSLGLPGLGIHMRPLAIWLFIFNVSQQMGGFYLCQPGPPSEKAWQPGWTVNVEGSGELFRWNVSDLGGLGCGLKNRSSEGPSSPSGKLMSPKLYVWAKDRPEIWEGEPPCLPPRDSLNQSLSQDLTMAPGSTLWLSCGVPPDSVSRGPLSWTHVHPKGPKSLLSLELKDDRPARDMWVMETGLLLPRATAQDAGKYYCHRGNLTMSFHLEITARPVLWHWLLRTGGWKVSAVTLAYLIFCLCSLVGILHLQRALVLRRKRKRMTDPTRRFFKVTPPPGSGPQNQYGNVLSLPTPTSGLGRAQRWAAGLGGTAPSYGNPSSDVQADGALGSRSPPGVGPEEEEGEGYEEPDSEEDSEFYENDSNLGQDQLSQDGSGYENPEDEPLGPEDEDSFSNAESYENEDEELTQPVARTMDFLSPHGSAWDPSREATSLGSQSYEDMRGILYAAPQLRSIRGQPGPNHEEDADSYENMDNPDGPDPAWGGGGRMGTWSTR

Darzalex (antibody) was tested, and the EC50 [1] was 1.27 nM, the EC50 [2] was 1.27 nM and the EC50 [3] was 0.195 µg/mL. It also gave a Max MFI [3] of 4.02e+06 MFI.
Substance IgG1 isotype control (antibody) has an EC50 [4] of 4620 µg/mL, a Max MFI [4] of 38700 MFI and an EC50 [5] of 4620 µg/mL. The Max MFI [5] was 38700 MFI.
